Experimental data from publication doi:10.1101/2024.03.27.586873.

Biological target: 6xHis-tagged Imp1 (ΦKZ gp69) (phage ΦKZ)
Experiment: SEC + other: mass photometry

For “FLAG-tagged Imp6 (ΦKZ gp67) (natural protein)”, the stoichiometry N (gp67 per Imp1) was 2.
